# Experimental data taken from US6084068, “Elongin A and C functional domains” (Oklahoma Medical Research Foundation, dated 2000).
# Changes are numbered by the printed parent chain. Names may count otherwise.
# T1: Elongin BC complex (wild type rat Elongin B and C) (rat, UniProt P62870)
# T1 chain 1: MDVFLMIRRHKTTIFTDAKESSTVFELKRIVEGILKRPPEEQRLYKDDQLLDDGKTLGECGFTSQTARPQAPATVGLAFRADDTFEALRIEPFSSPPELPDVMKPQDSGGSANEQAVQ
# T1 chain 2: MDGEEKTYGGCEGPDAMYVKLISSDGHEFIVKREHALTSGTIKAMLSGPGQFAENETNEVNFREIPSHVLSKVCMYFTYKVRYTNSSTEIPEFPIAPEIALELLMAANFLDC
# B1: Elongin A deletion mutant 1-730 (other)
# chain: MAAESALQVVEKLQARLAANPDPKKLLKYLKKLSVLPITVDILVETGVGKTVNSFRKHEQVGNFARDLVAQWKKLVPVERNNEAEDQDFEKSNSRKRPRDVPQQEEEAEGNYQESWQASGSQPYSPEHRQKKHRKLPELERPHKVAHGHERRDERKRCHKVSPPYSSDPESSDYGHVQSPPPSSPHQMYTDLSRSPEMDQEPIVSHPKPGKVHSNTFQDRLGVSHLGEHQGKGAVSQNKPHKSSHKEKRPVDARGDEKSSVMGREKSHKASSKEESRRLLSEDSAKEKLPSSVVKKEKDREGNSLKKKLSPALDVASDNHFKKPKHKDSEKIKSDKNKQSVDSVDSGRGTGDPLPRAKDKVPNNLKAQEGKVRTNSDRKSPGSLPKVEEMDMDDEFEQPTMSFESYLSYDQPRKKKKKVVKTSGTALGEKGLKKKDSKSTSKNLNSAQKLPKANENKSDKLQPAGAEPTRPRKVPTDVLPALPDIPLPAIQTNYRPLPSLELISSFQPKRKAFSSPQEEEEAGFTGRRMNSKMQVYSGSKCAYLPKMMTLHQQCIRVLKNNIDSIFEVGGVPYSVLEPVLERCTPDQLYRIEECNHVLIEETDQLWKVHCHRDFKEERPEEYESWREMYLRLQDAREQRLRLLTNNIRSAHANKPKGRQAKMAFVNSVAKPPRDVRRRQEKFGTGGAAVPEKVRIKPAPYTTGSSHVPASNSSSSFHSSPEELAYEGPST
# B2: Elongin A deletion mutant 400-773 (other)
# chain: TMSFESYLSYDQPRKKKKKVVKTSGTALGEKGLKKKDSKSTSKNLNSAQKLPKANENKSDKLQPAGAEPTRPRKVPTDVLPALPDIPLPAIQTNYRPLPSLELISSFQPKRKAFSSPQEEEEAGFTGRRMNSKMQVYSGSKCAYLPKMMTLHQQCIRVLKNNIDSIFEVGGVPYSVLEPVLERCTPDQLYRIEECNHVLIEETDQLWKVHCHRDFKEERPEEYESWREMYLRLQDAREQRLRLLTNNIRSAHANKPKGRQAKMAFVNSVAKPPRDVRRRQEKFGTGGAAVPEKVRIKPAPYTTGSSHVPASNSSSSFHSSPEELAYEGPSTSSAHLAPVASSSVSYDPRKPAVKKIAPMMAKTIKAFKNRFSRR
# B3: Elongin A internal deletion mutant Δ561-564 (other)
# chain: MAAESALQVVEKLQARLAANPDPKKLLKYLKKLSVLPITVDILVETGVGKTVNSFRKHEQVGNFARDLVAQWKKLVPVERNNEAEDQDFEKSNSRKRPRDVPQQEEEAEGNYQESWQASGSQPYSPEHRQKKHRKLPELERPHKVAHGHERRDERKRCHKVSPPYSSDPESSDYGHVQSPPPSSPHQMYTDLSRSPEMDQEPIVSHPKPGKVHSNTFQDRLGVSHLGEHQGKGAVSQNKPHKSSHKEKRPVDARGDEKSSVMGREKSHKASSKEESRRLLSEDSAKEKLPSSVVKKEKDREGNSLKKKLSPALDVASDNHFKKPKHKDSEKIKSDKNKQSVDSVDSGRGTGDPLPRAKDKVPNNLKAQEGKVRTNSDRKSPGSLPKVEEMDMDDEFEQPTMSFESYLSYDQPRKKKKKVVKTSGTALGEKGLKKKDSKSTSKNLNSAQKLPKANENKSDKLQPAGAEPTRPRKVPTDVLPALPDIPLPAIQTNYRPLPSLELISSFQPKRKAFSSPQEEEEAGFTGRRMNSKMQVYSGSKCAYLPKMMTLHQQCIRVLKNIFEVGGVPYSVLEPVLERCTPDQLYRIEECNHVLIEETDQLWKVHCHRDFKEERPEEYESWREMYLRLQDAREQRLRLLTNNIRSAHANKPKGRQAKMAFVNSVAKPPRDVRRRQEKFGTGGAAVPEKVRIKPAPYTTGSSHVPASNSSSSFHSSPEELAYEGPSTSSAHLAPVASSSVSYDPRKPAVKKIAPMMAKTIKAFKNRFSRR
# B4: Elongin A internal deletion mutant Δ565-568 (other)
# chain: B3 chain with I561N, F562I, E563D, V564S
# B5: Elongin A internal deletion mutant Δ401-440 (other)
# chain: MAAESALQVVEKLQARLAANPDPKKLLKYLKKLSVLPITVDILVETGVGKTVNSFRKHEQVGNFARDLVAQWKKLVPVERNNEAEDQDFEKSNSRKRPRDVPQQEEEAEGNYQESWQASGSQPYSPEHRQKKHRKLPELERPHKVAHGHERRDERKRCHKVSPPYSSDPESSDYGHVQSPPPSSPHQMYTDLSRSPEMDQEPIVSHPKPGKVHSNTFQDRLGVSHLGEHQGKGAVSQNKPHKSSHKEKRPVDARGDEKSSVMGREKSHKASSKEESRRLLSEDSAKEKLPSSVVKKEKDREGNSLKKKLSPALDVASDNHFKKPKHKDSEKIKSDKNKQSVDSVDSGRGTGDPLPRAKDKVPNNLKAQEGKVRTNSDRKSPGSLPKVEEMDMDDEFEQPTSKNLNSAQKLPKANENKSDKLQPAGAEPTRPRKVPTDVLPALPDIPLPAIQTNYRPLPSLELISSFQPKRKAFSSPQEEEEAGFTGRRMNSKMQVYSGSKCAYLPKMMTLHQQCIRVLKNNIDSIFEVGGVPYSVLEPVLERCTPDQLYRIEECNHVLIEETDQLWKVHCHRDFKEERPEEYESWREMYLRLQDAREQRLRLLTNNIRSAHANKPKGRQAKMAFVNSVAKPPRDVRRRQEKFGTGGAAVPEKVRIKPAPYTTGSSHVPASNSSSSFHSSPEELAYEGPSTSSAHLAPVASSSVSYDPRKPAVKKIAPMMAKTIKAFKNRFSRR
# B6: Elongin A deletion mutant 1-630 (other)
# chain: MAAESALQVVEKLQARLAANPDPKKLLKYLKKLSVLPITVDILVETGVGKTVNSFRKHEQVGNFARDLVAQWKKLVPVERNNEAEDQDFEKSNSRKRPRDVPQQEEEAEGNYQESWQASGSQPYSPEHRQKKHRKLPELERPHKVAHGHERRDERKRCHKVSPPYSSDPESSDYGHVQSPPPSSPHQMYTDLSRSPEMDQEPIVSHPKPGKVHSNTFQDRLGVSHLGEHQGKGAVSQNKPHKSSHKEKRPVDARGDEKSSVMGREKSHKASSKEESRRLLSEDSAKEKLPSSVVKKEKDREGNSLKKKLSPALDVASDNHFKKPKHKDSEKIKSDKNKQSVDSVDSGRGTGDPLPRAKDKVPNNLKAQEGKVRTNSDRKSPGSLPKVEEMDMDDEFEQPTMSFESYLSYDQPRKKKKKVVKTSGTALGEKGLKKKDSKSTSKNLNSAQKLPKANENKSDKLQPAGAEPTRPRKVPTDVLPALPDIPLPAIQTNYRPLPSLELISSFQPKRKAFSSPQEEEEAGFTGRRMNSKMQVYSGSKCAYLPKMMTLHQQCIRVLKNNIDSIFEVGGVPYSVLEPVLERCTPDQLYRIEECNHVLIEETDQLWKVHCHRDFKEERPEEYESWREMYL
# B7: Elongin A point mutant T549I (other)
# chain: MAAESALQVVEKLQARLAANPDPKKLLKYLKKLSVLPITVDILVETGVGKTVNSFRKHEQVGNFARDLVAQWKKLVPVERNNEAEDQDFEKSNSRKRPRDVPQQEEEAEGNYQESWQASGSQPYSPEHRQKKHRKLPELERPHKVAHGHERRDERKRCHKVSPPYSSDPESSDYGHVQSPPPSSPHQMYTDLSRSPEMDQEPIVSHPKPGKVHSNTFQDRLGVSHLGEHQGKGAVSQNKPHKSSHKEKRPVDARGDEKSSVMGREKSHKASSKEESRRLLSEDSAKEKLPSSVVKKEKDREGNSLKKKLSPALDVASDNHFKKPKHKDSEKIKSDKNKQSVDSVDSGRGTGDPLPRAKDKVPNNLKAQEGKVRTNSDRKSPGSLPKVEEMDMDDEFEQPTMSFESYLSYDQPRKKKKKVVKTSGTALGEKGLKKKDSKSTSKNLNSAQKLPKANENKSDKLQPAGAEPTRPRKVPTDVLPALPDIPLPAIQTNYRPLPSLELISSFQPKRKAFSSPQEEEEAGFTGRRMNSKMQVYSGSKCAYLPKMMILHQQCIRVLKNNIDSIFEVGGVPYSVLEPVLERCTPDQLYRIEECNHVLIEETDQLWKVHCHRDFKEERPEEYESWREMYLRLQDAREQRLRLLTNNIRSAHANKPKGRQAKMAFVNSVAKPPRDVRRRQEKFGTGGAAVPEKVRIKPAPYTTGSSHVPASNSSSSFHSSPEELAYEGPSTSSAHLAPVASSSVSYDPRKPAVKKIAPMMAKTIKAFKNRFSRR
# B8: Elongin A point mutant C554F (other)
# chain: B7 chain with I549T, C554F
# B9: Elongin A point mutant V557E (other)
# chain: B7 chain with I549T, V557E
# B10: Elongin A deletion mutant 1-680 (other)
# chain: MAAESALQVVEKLQARLAANPDPKKLLKYLKKLSVLPITVDILVETGVGKTVNSFRKHEQVGNFARDLVAQWKKLVPVERNNEAEDQDFEKSNSRKRPRDVPQQEEEAEGNYQESWQASGSQPYSPEHRQKKHRKLPELERPHKVAHGHERRDERKRCHKVSPPYSSDPESSDYGHVQSPPPSSPHQMYTDLSRSPEMDQEPIVSHPKPGKVHSNTFQDRLGVSHLGEHQGKGAVSQNKPHKSSHKEKRPVDARGDEKSSVMGREKSHKASSKEESRRLLSEDSAKEKLPSSVVKKEKDREGNSLKKKLSPALDVASDNHFKKPKHKDSEKIKSDKNKQSVDSVDSGRGTGDPLPRAKDKVPNNLKAQEGKVRTNSDRKSPGSLPKVEEMDMDDEFEQPTMSFESYLSYDQPRKKKKKVVKTSGTALGEKGLKKKDSKSTSKNLNSAQKLPKANENKSDKLQPAGAEPTRPRKVPTDVLPALPDIPLPAIQTNYRPLPSLELISSFQPKRKAFSSPQEEEEAGFTGRRMNSKMQVYSGSKCAYLPKMMTLHQQCIRVLKNNIDSIFEVGGVPYSVLEPVLERCTPDQLYRIEECNHVLIEETDQLWKVHCHRDFKEERPEEYESWREMYLRLQDAREQRLRLLTNNIRSAHANKPKGRQAKMAFVNSVAKPPRDVRRRQE
# Molecular target: T1, Elongin BC complex (wild type rat …)
# Test: refolded with wild type Elongin B and C; TSK SP-NPR HPLC, SDS-PAGE, silver staining
row,binding result,Binder
1,binds,B1
2,binds,B2
3,binds,B3
4,binds,B4
5,binds,B5
6,binds,B6
7,binds,B7
8,binds,B8
9,binds,B9
10,binds,B10
